Measured values taken from US5908756.

Molecular target: neuronal nitric oxide synthase (nNOS) expressed in transfected HEK 293 cells (rat)

Chain of thrombin-cleaved PIN-1 (P61273 whole entry): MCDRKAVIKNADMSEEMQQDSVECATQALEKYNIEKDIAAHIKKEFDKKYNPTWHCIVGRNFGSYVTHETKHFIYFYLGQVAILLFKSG

## glutathione-S-transferase (GST)-PIN-1 fusion protein
  50% inhibition of NOS activity: 1 µM

## thrombin-cleaved PIN-1
  50% inhibition of NOS activity: 5000 µM
